In US8840891 (RSR, dated 2014):
Read-outs that look alike come from different tables or passages of the source.

Tests used:
Experiment in all cases: cell-based or functional assay
[1] = target: TSHR with Lys58 mutated to Alanine (human) (UniProt P16473)
[2] = target: human TSHR (wild type) expressed in CHO cells (human) (UniProt P16473)
[3] = target: human TSHR Asp203Ala, expressed in CHO cells (human) (UniProt P16473)
[4] = target: human TSHR expressed on CHO cells (human) (UniProt P16473)
[5] = target: human TSHR with Asp276 mutated to Alanine, expressed in CHO cells (human) (UniProt P16473)
[6] = target: wild type human TSHR (human) (UniProt P16473)
[7] = target: human TSHR with activating mutation A623I, on CHO cells (human) (UniProt P16473)
[8] = target: human TSHR with activating mutation S281I, on CHO cells (human) (UniProt P16473)
[9] = target: wild type human TSHR (thyrotropin receptor) expressed on CHO cells (human) (UniProt P16473)
[10] = target: TSHR with Arg274 mutated to Alanine expressed on CHO cells (human) (UniProt P16473)
[11] = target: wild type human TSHR (thyrotropin receptor) expressed on CHO cells (human) (UniProt P16473); remark: listed apart in the source

5C9 IgG (antibody)
Mutated/wild type (%); 5C9 0.01 µg/mL + TSH [1]: 108% | Mutated/wild type (%); 5C9 0.1 µg/mL + TSH [1]: 104% | Mutated/wild type (%); 5C9 1.0 µg/mL + TSH [1]: 195% | Mutated/wild type (%); 5C9 10 µg/mL + TSH [1]: 272% | Mutated/wild type (%); 5C9 100 µg/mL + TSH [1]: 190% | cyclic AMP; 5C9 0.01 µg/mL + TSH (fmol/cell well) [1]: 7910 | cyclic AMP; 5C9 0.1 µg/mL + TSH (fmol/cell well) [1]: 4820 | cyclic AMP; 5C9 1.0 µg/mL + TSH (fmol/cell well) [1]: 1790 | cyclic AMP; 5C9 10 µg/mL + TSH (fmol/cell well) [1]: 955 | cyclic AMP; 5C9 100 µg/mL + TSH (fmol/cell well) [1]: 1000 | cyclic AMP; 5C9 100 µg/mL only (fmol/cell well) [1]: < 25 | % inhibition of TSH stimulated cyclic AMP level; pTSH 3 ng/mL + 1 µg/mL 5C9 [2]: 92% | Cyclic AMP produced; 5C9 0.01 µg/mL + pTSH 3 ng/mL; Experiment 1 (fmol/cell well) [2]: 17200 | Cyclic AMP produced; 5C9 0.01 µg/mL + pTSH 3 ng/mL; Experiment 2 (fmol/cell well) [2]: 14100 | Cyclic AMP produced; 5C9 0.1 µg/mL + pTSH 3 ng/mL; Experiment 1 (fmol/cell well) [2]: 5590 | Cyclic AMP produced; 5C9 0.1 µg/mL + pTSH 3 ng/mL; Experiment 2 (fmol/cell well) [2]: 4460 | Cyclic AMP produced; 5C9 1.0 µg/mL + pTSH 3 ng/mL; Experiment 1 (mean of duplicate determinations) (fmol/cell well) [2]: 759 | Cyclic AMP produced; 5C9 1.0 µg/mL + pTSH 3 ng/mL; Experiment 2 (fmol/cell well) [2]: 657 | Cyclic AMP produced; 5C9 10 µg/mL + pTSH 3 ng/mL; Experiment 1 (fmol/cell well) [2]: 366 | Cyclic AMP produced; 5C9 10 µg/mL + pTSH 3 ng/mL; Experiment 2 (fmol/cell well) [2]: 541 | Cyclic AMP produced; 5C9 100 µg/mL + pTSH 3 ng/mL; Experiment 1 (fmol/cell well) [2]: 344 | Cyclic AMP produced; 5C9 100 µg/mL + pTSH 3 ng/mL; Experiment 2 (fmol/cell well) [2]: 286 | Cyclic AMP produced; 5C9 100 µg/mL only (no TSH); Experiment 1 (fmol/cell well) [2]: 300 | Cyclic AMP produced; 5C9 100 µg/mL only (no TSH); Experiment 2 (fmol/cell well) [2]: 208 | cyclic AMP concentration; pTSH 3 ng/mL + 1 µg/mL 5C9 (fmol/cell well) [2]: 1110 | % inhibition of TSH stimulated cyclic AMP level; pTSH 3 ng/mL + 1 µg/mL 5C9 [3]: 4% | cyclic AMP concentration; pTSH 3 ng/mL + 1 µg/mL 5C9 (mean of duplicate samples) (fmol/cell well) [3]: 9400 | Cyclic AMP, serum T1 + 0.001 µg/mL 5C9 IgG (fmol/cell well) [4]: 16900 | Cyclic AMP, serum T1 + 0.01 µg/mL 5C9 IgG (fmol/cell well) [4]: 20300 | Cyclic AMP, serum T1 + 0.1 µg/mL 5C9 IgG (fmol/cell well) [4]: 16200 | Cyclic AMP, serum T1 + 1 µg/mL 5C9 IgG (fmol/cell well) [4]: 2430 | Cyclic AMP, serum T1 + 10 µg/mL 5C9 IgG (fmol/cell well) [4]: 1120 | Cyclic AMP, serum T3 + 0.001 µg/mL 5C9 IgG (fmol/cell well) [4]: 11600 | Cyclic AMP, serum T3 + 0.01 µg/mL 5C9 IgG (fmol/cell well) [4]: 13700 | Cyclic AMP, serum T3 + 0.1 µg/mL 5C9 IgG (fmol/cell well) [4]: 10400 | Cyclic AMP, serum T3 + 1 µg/mL 5C9 IgG (fmol/cell well) [4]: 8080 | Cyclic AMP, serum T3 + 10 µg/mL 5C9 IgG (fmol/cell well) [4]: 7810 | Cyclic AMP, serum T6 + 0.001 µg/mL 5C9 IgG (fmol/cell well) [4]: 11800 | Cyclic AMP, serum T6 + 0.01 µg/mL 5C9 IgG (fmol/cell well) [4]: 13900 | Cyclic AMP, serum T6 + 0.1 µg/mL 5C9 IgG (fmol/cell well) [4]: 9530 | Cyclic AMP, serum T6 + 1 µg/mL 5C9 IgG (fmol/cell well) [4]: 2370 | Cyclic AMP, serum T6 + 10 µg/mL 5C9 IgG (fmol/cell well) [4]: 1030 | Cyclic AMP, serum T19 + 0.001 µg/mL 5C9 IgG (mean of duplicate) (fmol/cell well) [4]: 6470 | Cyclic AMP, serum T19 + 0.01 µg/mL 5C9 IgG (fmol/cell well) [4]: 5750 | Cyclic AMP, serum T19 + 0.1 µg/mL 5C9 IgG (fmol/cell well) [4]: 375 | Cyclic AMP, serum T19 + 1 µg/mL 5C9 IgG (fmol/cell well) [4]: 187 | Cyclic AMP, serum T19 + 10 µg/mL 5C9 IgG (fmol/cell well) [4]: 275 | Cyclic AMP, serum T20 + 0.001 µg/mL 5C9 IgG (mean of duplicate) (fmol/cell well) [4]: 4860 | Cyclic AMP, serum T20 + 0.01 µg/mL 5C9 IgG (fmol/cell well) [4]: 6490 | Cyclic AMP, serum T20 + 0.1 µg/mL 5C9 IgG (fmol/cell well) [4]: 2180 | Cyclic AMP produced; 5C9 0.01 µg/mL + pTSH 3 ng/mL; Experiment 1 (fmol/cell well) [5]: 26200 | Cyclic AMP produced; 5C9 0.01 µg/mL + pTSH 3 ng/mL; Experiment 2 (fmol/cell well) [5]: 21200 | Cyclic AMP produced; 5C9 0.1 µg/mL + pTSH 3 ng/mL; Experiment 1 (fmol/cell well) [5]: 16900 | Cyclic AMP produced; 5C9 0.1 µg/mL + pTSH 3 ng/mL; Experiment 2 (fmol/cell well) [5]: 7320 | Cyclic AMP produced; 5C9 1.0 µg/mL + pTSH 3 ng/mL; Experiment 1 (fmol/cell well) [5]: 4790 | Cyclic AMP produced; 5C9 1.0 µg/mL + pTSH 3 ng/mL; Experiment 2 (fmol/cell well) [5]: 1510 | Cyclic AMP produced; 5C9 10 µg/mL + pTSH 3 ng/mL; Experiment 1 (fmol/cell well) [5]: 1380 | Cyclic AMP produced; 5C9 10 µg/mL + pTSH 3 ng/mL; Experiment 2 (fmol/cell well) [5]: 1300 | Cyclic AMP produced; 5C9 100 µg/mL + pTSH 3 ng/mL; Experiment 1 (fmol/cell well) [5]: 565 | Cyclic AMP produced; 5C9 100 µg/mL + pTSH 3 ng/mL; Experiment 2 (fmol/cell well) [5]: 288 | Cyclic AMP produced; 5C9 100 µg/mL only (no TSH); Experiment 1 (fmol/cell well) [5]: 602 | Cyclic AMP produced; 5C9 100 µg/mL only (no TSH); Experiment 2 (fmol/cell well) [5]: 314 | Mutated/wild type (%) of cyclic AMP; 5C9 0.01 µg/mL + pTSH 3 ng/mL; Experiment 1 [5]: 152% | Mutated/wild type (%) of cyclic AMP; 5C9 0.01 µg/mL + pTSH 3 ng/mL; Experiment 2 [5]: 151% | Mutated/wild type (%) of cyclic AMP; 5C9 0.1 µg/mL + pTSH 3 ng/mL; Experiment 1 [5]: 301% | Mutated/wild type (%) of cyclic AMP; 5C9 0.1 µg/mL + pTSH 3 ng/mL; Experiment 2 [5]: 164% | Mutated/wild type (%) of cyclic AMP; 5C9 1.0 µg/mL + pTSH 3 ng/mL; Experiment 1 [5]: 631% | Mutated/wild type (%) of cyclic AMP; 5C9 1.0 µg/mL + pTSH 3 ng/mL; Experiment 2 [5]: 230% | Mutated/wild type (%) of cyclic AMP; 5C9 10 µg/mL + pTSH 3 ng/mL; Experiment 1 [5]: 378% | Mutated/wild type (%) of cyclic AMP; 5C9 10 µg/mL + pTSH 3 ng/mL; Experiment 2 [5]: 240% | Mutated/wild type (%) of cyclic AMP; 5C9 100 µg/mL + pTSH 3 ng/mL; Experiment 1 [5]: 164% | Mutated/wild type (%) of cyclic AMP; 5C9 100 µg/mL + pTSH 3 ng/mL; Experiment 2 [5]: 101% | Mutated/wild type (%) of cyclic AMP; 5C9 100 µg/mL only (no TSH); Experiment 1 [5]: 201% | Mutated/wild type (%) of cyclic AMP; 5C9 100 µg/mL only (no TSH); Experiment 2 [5]: 151% | cyclic AMP; 100 µg/mL 5C9 IgG only (fmol/cell well) [6]: 253 | cyclic AMP; 5C9 0.01 µg/mL + TSH (fmol/cell well) [6]: 7340 | cyclic AMP; 5C9 0.1 µg/mL + TSH (fmol/cell well) [6]: 4640 | cyclic AMP; 5C9 1.0 µg/mL + TSH (fmol/cell well) [6]: 918 | cyclic AMP; 5C9 10 µg/mL + TSH (fmol/cell well) [6]: 351 | cyclic AMP; 5C9 100 µg/mL + TSH (fmol/cell well) [6]: 528 | cyclic AMP; 5C9 100 µg/mL only (fmol/cell well) [6]: 47 | cyclic AMP; T21 + 0.001 µg/mL 5C9 IgG (fmol/cell well) [6]: 11300 | cyclic AMP; T21 + 0.01 µg/mL 5C9 IgG (fmol/cell well) [6]: 10400 | cyclic AMP; T21 + 0.1 µg/mL 5C9 IgG (fmol/cell well) [6]: 7480 | cyclic AMP; T21 + 1 µg/mL 5C9 IgG (fmol/cell well) [6]: 418 | cyclic AMP; T21 + 10 µg/mL 5C9 IgG (fmol/cell well) [6]: 303 | cyclic AMP; T21 + 100 µg/mL 5C9 IgG (fmol/cell well) [6]: 210

B1: 5C9 IgG (human monoclonal autoantibody to the TSHR) (antibody, from another filing, V domains shown)
VH: EVQLVESGGGLIQPGGSLRLSCAASGFTVSSNYMSWVRQAPGKGLEWVSVTYSGGSTSYADSVKGRFTISRDNSKNTLYLQMNSLRAEDTAVYYCARGGRYCSSISCYARSGCDYWGQGTLVTVSS
VL: AIQMTQSPSSLSASVGDRVTITCRASQSISNYLNWYQQKPGKAPKLLIYAASSLQSGVPSRFSGSGSGTDFTLTISSLQPEDFATYYCQQSYSSPSTTFGQGTKLEIK
basal cyclic AMP (buffer only 36.89); 5C9 IgG 0.001 µg/mL [7]: 26.5 pmol/mL | basal cyclic AMP (buffer only 36.89); 5C9 IgG 0.01 µg/mL [7]: 27 pmol/mL | basal cyclic AMP (buffer only 36.89); 5C9 IgG 0.1 µg/mL [7]: 19.8 pmol/mL | basal cyclic AMP (buffer only 36.89); 5C9 IgG 1 µg/mL [7]: 16.4 pmol/mL | % inhibition of basal cyclic AMP activity; 5C9 IgG 1 µg/mL [8]: 71% | Cyclic AMP produced; 5C9 0.01 µg/mL + TSH (fmol/cell well) [9]: 18700 | Cyclic AMP produced; 5C9 0.1 µg/mL + TSH (fmol/cell well) [9]: 6140 | Cyclic AMP produced; 5C9 1.0 µg/mL + TSH (fmol/cell well) [9]: 1400 | Cyclic AMP produced; 5C9 10 µg/mL + TSH (fmol/cell well) [9]: 638 | Cyclic AMP produced; 5C9 100 µg/mL + TSH (fmol/cell well) [9]: 591 | Cyclic AMP produced; 5C9 100 µg/mL only (fmol/cell well) [9]: 566 | Cyclic AMP produced; 5C9 0.01 µg/mL + TSH (fmol/cell well) [10]: 9560 | Cyclic AMP produced; 5C9 0.1 µg/mL + TSH (fmol/cell well) [10]: 1320 | Cyclic AMP produced; 5C9 1.0 µg/mL + TSH (fmol/cell well) [10]: 177 | Cyclic AMP produced; 5C9 10 µg/mL + TSH (fmol/cell well) [10]: 108 | Cyclic AMP produced; 5C9 100 µg/mL + TSH (fmol/cell well) [10]: 17 | Cyclic AMP produced; 5C9 100 µg/mL only (fmol/cell well) [10]: 34 | Mutated/wild type (%); 5C9 0.01 µg/mL + TSH [10]: 58% | Mutated/wild type (%); 5C9 0.1 µg/mL + TSH [10]: 26% | Mutated/wild type (%); 5C9 1.0 µg/mL + TSH [10]: 22% | Mutated/wild type (%); 5C9 10 µg/mL + TSH [10]: 16% | Mutated/wild type (%); 5C9 100 µg/mL + TSH [10]: 7% | Mutated/wild type (%); 5C9 100 µg/mL only [10]: 31% | Cyclic AMP produced; 5C9 0.01 µg/mL + TSH (fmol/cell well) [11]: 16300 | Cyclic AMP produced; 5C9 0.1 µg/mL + TSH (fmol/cell well) [11]: 5000 | Cyclic AMP produced; 5C9 1.0 µg/mL + TSH (fmol/cell well) [11]: 808 | Cyclic AMP produced; 5C9 10 µg/mL + TSH (fmol/cell well) [11]: 684 | Cyclic AMP produced; 5C9 100 µg/mL + TSH (fmol/cell well) [11]: 246 | Cyclic AMP produced; 5C9 100 µg/mL only (fmol/cell well) [11]: 111
